Biological target: SARS-CoV-2 RBD, His6-tagged, for biolayer interferometry (SARS-CoV-2, UniProt P0DTC2 319-541)
Assay: BLI

B1: 47D1 Fab (Fab, V domains shown)
VH: QVQLVQSGAEVKKPGSSVRVSCKASGGTFSTYPISWVRQAPGQGLEWMGGIIPIFGTAKSAQKFQGRVTITADEFTSTAYMEMSSLRSEDTAMYYCAREGRRYGSGWYISTGYFDYWGQGTLVTVSS
VL: QLVLTQPASVSGSPGQSIIVSCTGTSSDVGGYKFVSWYQQHPGKAPRVMIYDVSNRPSGVSNRFSGSKSGNTASLTISGLQADDEADYYCSSYTNSSTVVFGGGTKVTVL
For B1, the Kd was 2 nM.

Reference: PMC8064889 (2021)
